Measured values from patent WO2021102332A1 (dated 2021).

T1: LRRC15 (leucine-rich repeat-containing protein 15) (human, UniProt Q8TF66 22-538, limits assumed)
T1 construct: The KD sentences say only 'LRRC15'; also called human LRRC15
T1 sequence (looked up): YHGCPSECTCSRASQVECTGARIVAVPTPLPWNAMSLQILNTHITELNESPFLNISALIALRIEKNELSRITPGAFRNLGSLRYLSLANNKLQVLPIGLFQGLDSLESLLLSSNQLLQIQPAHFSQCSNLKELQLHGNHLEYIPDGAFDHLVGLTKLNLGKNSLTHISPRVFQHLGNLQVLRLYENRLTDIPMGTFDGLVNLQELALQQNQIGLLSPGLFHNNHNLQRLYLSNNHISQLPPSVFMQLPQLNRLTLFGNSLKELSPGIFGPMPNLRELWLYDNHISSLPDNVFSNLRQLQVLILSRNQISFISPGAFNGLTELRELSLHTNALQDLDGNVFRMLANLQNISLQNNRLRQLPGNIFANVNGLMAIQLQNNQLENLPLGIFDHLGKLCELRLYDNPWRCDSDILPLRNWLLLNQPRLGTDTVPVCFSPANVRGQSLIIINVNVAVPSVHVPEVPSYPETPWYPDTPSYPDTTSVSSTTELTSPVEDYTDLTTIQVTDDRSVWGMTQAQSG


What was measured:
[1] = molecular target: T1, LRRC15 (leucine-rich repeat-containing …); assay: binding analysis (koff and/or KD) of mAb expressed in CHO cells; method not named
[2] = molecular target: T1, LRRC15 (leucine-rich repeat-containing …); assay: binding analysis (koff and/or KD); method not named

| Binder | Kd [1] | Kd [2] |
| --- | --- | --- |
| hzK713 VHv1 / hzK713 VLv1 (antibody, V domains shown, Expressed in CHO cells; also called parent antibody comprising hzK713 VLv1 in combination with heavy chain hzK713 VHv1) VH: QVQLVQSGAEVKKPGASVKVSCKASGYTFTDYYMNWVRQAPGQRLEWMGRVSPSNGGTNYNQKFRGRVTITRDTSASTAYMELSSLRSEDTAVYYCARRGAGYSYYAMDYWGQGTTVTVSS VL: DIVMTQSPDSLAVSLGERATINCRASESVDSYGNSLMYWYQQKPGQPPKLLIYLASNLESGVPDRFSGSGSGTDFTLTISSLQAEDVAVYYCQQNNEDPLTFGGGTKVEIK | 0.208 nM |  |
| hzK713 VHv2 (N55Q) / hzK713 VLv1 (antibody, V domains shown, The KD sentence prints 'hzJ48 VHv2-v4', read as hzK713 VHv2-v4; also called printed in the KD sentence as hzJ48 VHv2 with hzK713 VLv1) VH: QVQLVQSGAEVKKPGASVKVSCKASGYTFTDYYMNWVRQAPGQRLEWMGRVSPSQGGTNYNQKFRGRVTITRDTSASTAYMELSSLRSEDTAVYYCARRGAGYSYYAMDYWGQGTTVTVSS VL: DIVMTQSPDSLAVSLGERATINCRASESVDSYGNSLMYWYQQKPGQPPKLLIYLASNLESGVPDRFSGSGSGTDFTLTISSLQAEDVAVYYCQQNNEDPLTFGGGTKVEIK | 0.307 nM |  |
| hzK713 VHv3 (N55S) / hzK713 VLv1 (antibody, V domains shown, The KD sentence prints 'hzJ48 VHv2-v4', read as hzK713 VHv2-v4; also called printed in the KD sentence as hzJ48 VHv3 with hzK713 VLv1) VH: QVQLVQSGAEVKKPGASVKVSCKASGYTFTDYYMNWVRQAPGQRLEWMGRVSPSSGGTNYNQKFRGRVTITRDTSASTAYMELSSLRSEDTAVYYCARRGAGYSYYAMDYWGQGTTVTVSS VL: DIVMTQSPDSLAVSLGERATINCRASESVDSYGNSLMYWYQQKPGQPPKLLIYLASNLESGVPDRFSGSGSGTDFTLTISSLQAEDVAVYYCQQNNEDPLTFGGGTKVEIK | 0.212 nM |  |
| hzK713 VHv4 (G56A) / hzK713 VLv1 (antibody, V domains shown, The KD sentence prints 'hzJ48 VHv2-v4', read as hzK713 VHv2-v4; also called printed in the KD sentence as hzJ48 VHv4 with hzK713 VLv1) VH: QVQLVQSGAEVKKPGASVKVSCKASGYTFTDYYMNWVRQAPGQRLEWMGRVSPSNAGTNYNQKFRGRVTITRDTSASTAYMELSSLRSEDTAVYYCARRGAGYSYYAMDYWGQGTTVTVSS VL: DIVMTQSPDSLAVSLGERATINCRASESVDSYGNSLMYWYQQKPGQPPKLLIYLASNLESGVPDRFSGSGSGTDFTLTISSLQAEDVAVYYCQQNNEDPLTFGGGTKVEIK | 0.334 nM |  |
| hzF36 VHv6.2 (D54Q) / hzF36 VLv1 (antibody, V domains shown) VH: QVQLVQSGAEVKKPGASVKVSCKASGYTFTSFVIHWVRQAPGQGLEWMGYIYNQGTKYNERFRGRATLTSDKSTSTVYMELSSLRSEDTAVYYCARDYYFDYWGQGTLVTVSS VL: DIVMTQSPDSLAVSLGERATINCRASESVDYYGISFMNWYQQKPGQPPKLLIYAASNQGSGVPDRFSGSGSGTDFTLTISSLQAEDVAVYYCQQSKEVPYTFGGGTKVEIK | 0.34 nM |  |
| hzF36 VHv6 / hzF36 VLv1.1 (M4L) (antibody, V domains shown, also called parent heavy chain hzF36 VHv6 in combination with light chain hzF36 VLv1.1) VH: QVQLVQSGAEVKKPGASVKVSCKASGYTFTSFVIHWVRQAPGQGLEWMGYIYNDGTKYNERFRGRATLTSDKSTSTVYMELSSLRSEDTAVYYCARDYYFDYWGQGTLVTVSS VL: DIVLTQSPDSLAVSLGERATINCRASESVDYYGISFMNWYQQKPGQPPKLLIYAASNQGSGVPDRFSGSGSGTDFTLTISSLQAEDVAVYYCQQSKEVPYTFGGGTKVEIK | 0.33 nM |  |
| hzF36 VHv6.4 (G55A) / hzF36 VLv1 (antibody, V domains shown) VH: QVQLVQSGAEVKKPGASVKVSCKASGYTFTSFVIHWVRQAPGQGLEWMGYIYNDATKYNERFRGRATLTSDKSTSTVYMELSSLRSEDTAVYYCARDYYFDYWGQGTLVTVSS VL: DIVMTQSPDSLAVSLGERATINCRASESVDYYGISFMNWYQQKPGQPPKLLIYAASNQGSGVPDRFSGSGSGTDFTLTISSLQAEDVAVYYCQQSKEVPYTFGGGTKVEIK | 0.32 nM |  |
| hzJ48 VHv3 / hzJ48 VLv1.1 (N92S) (antibody, V domains shown, Human IgG1 or IgG1null and human kappa constant regions) VH: QVQLVQSGAEVKKPGASVKVSCKASGYTFTDYYINWVRQAPGQGLEWMGWIYPGSGNTKYAQKFQGRVTMTRDTSTSTVYMELSSLRSEDTAVYYCARWGYGAYFTYWGQGTLVTVSS VL: DIQMTQSPSSLSASVGDRVTITCKASQNVGINVAWYQQKPGKAPKLLIYSASYRSSGVPSRFSGSGSGTDFTLTISSLQPEDFATYYCQQYSSFPYTFGGGTKVEIK | 1.7 nM |  |
| hzJ48 VHv3 / hzJ48 VLv1.2 (N92Q) (antibody, V domains shown, Human IgG1 or IgG1null and human kappa constant regions) VH: QVQLVQSGAEVKKPGASVKVSCKASGYTFTDYYINWVRQAPGQGLEWMGWIYPGSGNTKYAQKFQGRVTMTRDTSTSTVYMELSSLRSEDTAVYYCARWGYGAYFTYWGQGTLVTVSS VL: DIQMTQSPSSLSASVGDRVTITCKASQNVGINVAWYQQKPGKAPKLLIYSASYRSSGVPSRFSGSGSGTDFTLTISSLQPEDFATYYCQQYQSFPYTFGGGTKVEIK | 1.6 nM |  |
| hzJ48 VHv3 / hzJ48 VLv1.3 (S93A) (antibody, V domains shown, Human IgG1 or IgG1null and human kappa constant regions) VH: QVQLVQSGAEVKKPGASVKVSCKASGYTFTDYYINWVRQAPGQGLEWMGWIYPGSGNTKYAQKFQGRVTMTRDTSTSTVYMELSSLRSEDTAVYYCARWGYGAYFTYWGQGTLVTVSS VL: DIQMTQSPSSLSASVGDRVTITCKASQNVGINVAWYQQKPGKAPKLLIYSASYRSSGVPSRFSGSGSGTDFTLTISSLQPEDFATYYCQQYNAFPYTFGGGTKVEIK | 0.6 nM |  |
| hzJ66 VHv2 (M102L) / hzJ66 VLv1 (antibody, V domains shown, also called printed as heavy chain variant hzJ66 VLv2 with light chain hzJ66 VHv1) VH: QVQLVQSGAEVKKPGASVKVSCKASGYTFTNYWIGWVRQAPGQGLEWMGDIYPRSGYTNYNEKFKGRVTMTRDTSTSTVYMELSSLRSEDTAVYYCARSGGLYYFDYWGQGTTVTVSS VL: not shown | < 0.001 nM |  |
| hzJ66 VHv1 / hzJ66 VLv1 (antibody, V domains shown, The KD sentence says only 'the parent humanized ... antibody'; also called parent humanized antibody (J66)) VH: QVQLVQSGAEVKKPGASVKVSCKASGYTFTNYWIGWVRQAPGQGLEWMGDIYPRSGYTNYNEKFKGRVTMTRDTSTSTVYMELSSLRSEDTAVYYCARSGGMYYFDYWGQGTTVTVSS VL: not shown |  | < 0.001 nM |
| hzJ66 VHv2 (M102L) / hzJ66 VLv1.1 (N22S) (antibody, V domains shown, also called printed as heavy chain variant hzJ66 VLv2 with light chain hzJ66 v1.1) VH: QVQLVQSGAEVKKPGASVKVSCKASGYTFTNYWIGWVRQAPGQGLEWMGDIYPRSGYTNYNEKFKGRVTMTRDTSTSTVYMELSSLRSEDTAVYYCARSGGLYYFDYWGQGTTVTVSS VL: not shown | < 0.001 nM |  |
| mAb J66 (mouse) (antibody, V domains shown, From hybridomas of immunized mice; also called parent mouse antibody; Bin A2) VH: QVQMKESGTELVRPGTSVKMSCKAAGYTFTNYWIGWVKQRPGHGPEWIGDIYPRSGYTNYNEKFKGKATLTADTSSSTAYMQLSSLTSEDSTIYFCARSGGMYYFDYWGQGTTLTVSS VL: not shown |  | < 0.001 nM |
